System: Escherichia coli TOP10
Test: shrunken log2 fold change of peptide-encoding DNA abundance (4.5 h post-induction vs induction); higher = less antimicrobial activity (less host growth inhibition)
Conditions: time post-induction: 4.5 h; library: site-saturation at positions 5, 18, 19, 20
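Also: peptides expressed intracellularly from a pBAD plasmid library in pooled LB shake-flask culture, induced with 0.3% L-arabinose, DNA abundance read by NGS, three biological replicates, DESeq2 with apeglm shrinkage.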

Sequence	shrunken log2 fold change
RRIRHRPPRLPRPRPRPHNVPRP	-0.195
RRIRFRPPRLPRPRPRPNPKPRP	0.0977
RRIRQRPPRLPRPRPRPYRAPRP	-0.0946
RRIRYRPPRLPRPRPRPHIAPRP	-0.408
RRIRVRPPRLPRPRPRPMKGPRP	-0.01
RRIRNRPPRLPRPRPRPACWPRP	0.449
RRIRWRPPRLPRPRPRPEVCPRP	0.000572
RRIRTRPPRLPRPRPRPNPLPRP	-0.216
RRIRDRPPRLPRPRPRPTGYPRP	0.0485
RRIRSRPPRLPRPRPRPHMVPRP	-0.112
RRIRSRPPRLPRPRPRPYVLPRP	-0.277
RRIRKRPPRLPRPRPRPWSEPRP	0.00538
RRIRWRPPRLPRPRPRPCIVPRP	0.0112
RRIRMRPPRLPRPRPRPHWWPRP	0.325
RRIRSRPPRLPRPRPRPNYGPRP	-0.0945
RRIRARPPRLPRPRPRPMFDPRP	-0.101
RRIRNRPPRLPRPRPRPVFNPRP	-0.242
RRIRMRPPRLPRPRPRPILLPRP	-0.0378
RRIRCRPPRLPRPRPRPKNFPRP	-0.555
RRIRMRPPRLPRPRPRPVTQPRP	0.317
RRIRKRPPRLPRPRPRPHDTPRP	-0.0804
RRIRWRPPRLPRPRPRPMCKPRP	-0.0527

Sequence	shrunken log2 fold change
RRIRWRPPRLPRPRPRPTLVPRP	-0.212
RRIRSRPPRLPRPRPRPQPKPRP	0.526
RRIRMRPPRLPRPRPRPYIAPRP	-0.038
RRIRARPPRLPRPRPRPFYLPRP	-0.515
RRIRGRPPRLPRPRPRPKGRPRP	0.792
RRIRCRPPRLPRPRPRPHSAPRP	0.0702
RRIRMRPPRLPRPRPRPSKCPRP	-0.0848
RRIRKRPPRLPRPRPRPPRKPRP	0.821
RRIRLRPPRLPRPRPRPRFAPRP	0.374
RRIRYRPPRLPRPRPRPRTKPRP	0.011
RRIRPRPPRLPRPRPRPWPVPRP	0.317
RRIRNRPPRLPRPRPRPSIEPRP	-0.214
RRIRERPPRLPRPRPRPHTSPRP	-0.122
RRIRDRPPRLPRPRPRPYACPRP	0.0334
RRIRLRPPRLPRPRPRPQRMPRP	-0.124
RRIRWRPPRLPRPRPRPFISPRP	-0.174
RRIRFRPPRLPRPRPRPDVNPRP	0.00585
RRIRDRPPRLPRPRPRPWLTPRP	-0.0223
RRIRTRPPRLPRPRPRPHWLPRP	0.122
RRIRCRPPRLPRPRPRPAKAPRP	0.162
RRIRERPPRLPRPRPRPSRMPRP	-0.0294
RRIRSRPPRLPRPRPRPEDQPRP	0.106

Sequence	shrunken log2 fold change
RRIRVRPPRLPRPRPRPYHFPRP	-0.111
RRIRSRPPRLPRPRPRPVMNPRP	0.0346
RRIRKRPPRLPRPRPRPSGEPRP	0.0144
RRIRYRPPRLPRPRPRPRFGPRP	0.345
RRIRARPPRLPRPRPRPESEPRP	3.51
RRIRNRPPRLPRPRPRPAPLPRP	0.196
RRIRRRPPRLPRPRPRPKQGPRP	-0.079
RRIRDRPPRLPRPRPRPRQNPRP	0.00972
RRIRPRPPRLPRPRPRPNFDPRP	-0.0128
RRIRTRPPRLPRPRPRPRRKPRP	0.0652
RRIRRRPPRLPRPRPRPDMQPRP	0.272
RRIRSRPPRLPRPRPRPLHYPRP	-0.908
RRIRRRPPRLPRPRPRPRSPPRP	0.49
RRIRDRPPRLPRPRPRPKNKPRP	-0.314
RRIRFRPPRLPRPRPRPTSSPRP	-0.0359
RRIRWRPPRLPRPRPRPNAHPRP	0.0415
RRIRTRPPRLPRPRPRPHANPRP	-0.254
RRIRKRPPRLPRPRPRPFIRPRP	-0.21
RRIRPRPPRLPRPRPRPVITPRP	-0.123
RRIRKRPPRLPRPRPRPVSSPRP	0.00728
RRIRTRPPRLPRPRPRPHDMPRP	0.000904
RRIRIRPPRLPRPRPRPTNYPRP	-0.745

Sequence	shrunken log2 fold change
RRIRKRPPRLPRPRPRPFVWPRP	-0.0438
RRIRRRPPRLPRPRPRPYKKPRP	0.142
RRIRPRPPRLPRPRPRPMHAPRP	0.159
RRIRQRPPRLPRPRPRPKSNPRP	-0.29
RRIRCRPPRLPRPRPRPASHPRP	-0.241
RRIRLRPPRLPRPRPRPSHMPRP	-0.228
RRIRIRPPRLPRPRPRPGKGPRP	-0.185
RRIRIRPPRLPRPRPRPIFPPRP	-0.104
RRIRKRPPRLPRPRPRPQKLPRP	0.015
RRIRWRPPRLPRPRPRPLHGPRP	0.131
RRIRYRPPRLPRPRPRPVTSPRP	-0.168
RRIRMRPPRLPRPRPRPCCCPRP	0.0604
RRIRVRPPRLPRPRPRPMRIPRP	0.218
RRIRHRPPRLPRPRPRPERPPRP	-0.0369
RRIRARPPRLPRPRPRPHYLPRP	-0.503
RRIRQRPPRLPRPRPRPRDGPRP	0.666
RRIRSRPPRLPRPRPRPHQCPRP	-0.325
RRIRPRPPRLPRPRPRPQGWPRP	0.542
RRIRYRPPRLPRPRPRPFAMPRP	-0.844
RRIRRRPPRLPRPRPRPMGHPRP	0.129
RRIRERPPRLPRPRPRPYMFPRP	-0.736
RRIRARPPRLPRPRPRPWWMPRP	0.0201

Sequence	shrunken log2 fold change
RRIRERPPRLPRPRPRPMHAPRP	0.262
RRIRVRPPRLPRPRPRPFHSPRP	0.0749
RRIRYRPPRLPRPRPRPSSLPRP	-0.0385
RRIRTRPPRLPRPRPRPFKVPRP	0.0475
RRIRPRPPRLPRPRPRPAFKPRP	0.192
RRIRARPPRLPRPRPRPAQWPRP	0.252
RRIRIRPPRLPRPRPRPHTNPRP	-0.906
RRIRKRPPRLPRPRPRPGKYPRP	0.0356
RRIRFRPPRLPRPRPRPIIAPRP	-0.413
RRIRQRPPRLPRPRPRPFFRPRP	-0.236
RRIRTRPPRLPRPRPRPYVQPRP	-0.0752
RRIRERPPRLPRPRPRPFDPPRP	0.0149
RRIRDRPPRLPRPRPRPPPGPRP	0.774
RRIRRRPPRLPRPRPRPAHHPRP	0.332
RRIRHRPPRLPRPRPRPRQQPRP	0.283
RRIRFRPPRLPRPRPRPSHFPRP	-0.136
RRIRWRPPRLPRPRPRPTTKPRP	0.5
RRIRRRPPRLPRPRPRPAYSPRP	0.0936
RRIRPRPPRLPRPRPRPECKPRP	-0.352
RRIRRRPPRLPRPRPRPINKPRP	-0.431
RRIRPRPPRLPRPRPRPCVTPRP	0.15

— the supplement of paper PMC9112550, “Optimization of the antimicrobial peptide Bac7 by deep mutational scanning” (BMC Biology, 2022)
